Test results taken from patent US20170160285A1 (VIB VZW, published 2017).

T1: Recombinant rat RIC8A (resistance to inhibitors of cholinesterase 8A) (rat, UniProt Q80ZG1 1-491, limits assumed)
T1 construct: In the FACS screening it was labelled at random on amines with DYLIGHT-405 NHS ester
T1 sequence (looked up): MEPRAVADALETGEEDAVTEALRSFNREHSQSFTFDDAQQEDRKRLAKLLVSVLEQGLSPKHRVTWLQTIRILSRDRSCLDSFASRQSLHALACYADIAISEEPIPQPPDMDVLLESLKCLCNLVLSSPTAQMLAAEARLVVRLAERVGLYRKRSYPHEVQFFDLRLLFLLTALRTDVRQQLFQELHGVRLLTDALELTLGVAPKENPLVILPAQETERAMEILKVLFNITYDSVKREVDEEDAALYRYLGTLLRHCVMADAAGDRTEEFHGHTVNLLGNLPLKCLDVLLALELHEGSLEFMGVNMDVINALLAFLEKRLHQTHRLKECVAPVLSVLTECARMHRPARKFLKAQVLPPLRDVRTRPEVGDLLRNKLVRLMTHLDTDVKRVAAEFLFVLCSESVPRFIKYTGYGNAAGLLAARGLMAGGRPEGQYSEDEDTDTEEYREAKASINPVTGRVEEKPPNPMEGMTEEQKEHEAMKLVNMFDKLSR

B1: NANOBODY CA8421 (VHH)
VHH: QVQLVESGGGLVQAGGSLRLSCAASGRTFSNYAMGWFRQAPGKEREFVAHITWTGGITYYSDSVKGRFIISRDNAKNTVNLQMNSLKAEDTAVYYCAADRVPYRFGVPSINEYDYWGQGTQVTVSS
notes: Family 26
B2: NANOBODY CA8312 (VHH)
VHH: QVQLVESGGGLVQAGGSKRLSCAASGRPFSNSAMGWFRQAPGKEREFVAAISWSGGNTYYADSVKGRFTISRDNAKNAVYLRMNSLEPEDTAVYYCAGDRQPYVYDLPTAQYQYDYWGQGTQVTVSS
notes: Family 1; also called CA8328 (pMESy4, E. coli)
B3: NANOBODY CA8322 (VHH)
VHH: QVQLVESEGGLVQPGGSLRLSCAASGFTFKYYYMNWVRQAPGKGLEWVSRINQLGGTSYGDSVKGRFTISRDNAKNTLYLQMNSLVPEDTAVYYCARCPAGAACKVEYDYRGQGTQVTVSS
notes: Family 16; also called CA8338 (pMESy4, E. coli)
B4: NANOBODY CA8314 (VHH)
VHH: QVQLVESGGGLVQAGDSLRLSCTASERAFSRYAMGWFRQAPGKERELVAAVSWAGGTTYYGDSVKGRFTISRDNAKITVYLQMNSLKPEDTAVYYCAAEAREFSVGSYYATEYDYWGQGTQVTVSS
notes: Family 4; also called CA8330 (pMESy4, E. coli)
B5: NANOBODY CA8424 (VHH)
VHH: QVQLVESGGDLVQAGGSLRLSCAASGGIFIINNMGWYRQTPGNQRELVAEITRAGNSNYADSVKGRFTISRDNAKNTVYLQMNRLKPEDTAVYYCNFNVRYYGEYWGQGTQVTVSS
notes: Family 29; also called CA8444 (pMESy4, E. coli)
B6: NANOBODY CA8419 (VHH)
VHH: QVQLVESGGGLVQPGGSLRLSCAASGFTFSRFVMNWARQAPGKGLEWVSTINSDGDVTSYADSVKGRFTISRDNAKNTLYLQMNSLKPEDTAVYYCGKGWFLNRRDESRGQGTQVTVSS
notes: Family 24
B7: NANOBODY CA8406 (VHH)
VHH: QVQLVESGGGLVQPGGSLRLSCAASTNIFNLRSMGWYRQAPGKERELVATITTYNTNYADSVKGRFTISRDNAKKTMYLQMNSLRPEDTAVYYCNLQNRYDAMDYWGKGTQVTVSS
notes: Family 11
B8: NANOBODY CA8319 (VHH)
VHH: QVQLVESGGGLVQAGGSLRLSCEASGRTSSSYVMGWFRRVSGKEREFVAAINPTGSSTYYADSVKGRFTISRDNSKNTVYVQMNGLKPEDTAVYYCAATRRDFYIIRNSRPQFDYWGQGTQVTVSS
notes: Family 10
B9: NANOBODY CA8403 (VHH)
VHH: QVQLVESGGGLVQAGGSLRLSCAASTRTFSNYVMGWFRQAPGKEREFVSAITSSGRGTSYADSVKGRFTISRDNAKNTVFLQMNSLKPEDTAVYYCAATAADYVLRSRPSVYSYWGQGTQVTVSS
notes: Family 20; also called CA8432 (pMESy4, E. coli)
B10: NANOBODY CA8408 (VHH)
VHH: QVQLVESGGGLVQAGDSLRLSCAASGLIVSNYAMGWFRQAPGKEREFVAYINWNGGVTYYTNSVKGRFTISRDNAKNTVYLQMNSLKPEDTAVYYCARTSRASVTTRVADFGYWGQGTQVTVSS
notes: Family 6; also called CA8109 (pMESy4, E. coli)
B11: NANOBODY CA8411 (VHH)
VHH: QVQLVESGGGLVQAGGSLRLSCAASARTFSRYGAGWFRQAPGKEREFVGAITWGGGRTKYADSVKGRFTISRDNSKNTVYLQMNSLKSEDTAVYYCASSSIEFGPLEDTYDYWGQGTQVTVSS
notes: Family 3
B12: NANOBODY CA8318 (VHH)
VHH: QVQLVESGGGRVQAGDSLRLSCAASGRTFSPYAMGWFRQAPGKEREFVATINWSGDYTYYTDSVKGRFTTSRDNAKNTLYLEMNSLNAEDTAVYYCVARVGSPSSSDRAYQYWGQGTQVTVSS
notes: Family 8; also called CA8334 (pMESy4, E. coli)
B13: NANOBODY CA8402 (VHH)
VHH: QVQLVESGGGLVQAGGSLRLSCAASGRTFSNYAMGWFRQAPGKEREFVAAISWSGGKTLYAESVKGRFTISRDNAKNTVYLQMNSLKPEDTAVYYCAATPADLTVVAGPPRIEMWYWGQGTQVTVSS
notes: Family 19; also called CA8431 (pMESy4, E. coli)
B14: NANOBODY CA8405 (VHH)
VHH: QVQLVESGGGLVQDGGSLRLSCTASGRTFSNNAMGWFRQEPGREREFVAAIRWNGIANYADSVKGRFTISGDNAKNTVYLQMNSLKPDDTAVYYCAAAIRDGHNYYASDMRRYDYWGQGTQVTVSS
notes: Family 21; also called CA8433 (pMESy4, E. coli)
B15: NANOBODY CA8315 (VHH)
VHH: QVQLVESGGGLVQAGGSLRLSCAASGRTFSNYAMGWFRQTPGKEREFVAAITWSGGATYYADSVKGRFIISRDNTKNTVYLQMNSLKPEDTAVYYCAADRKPYSYYPSDFGSWGQGTQVTVSS
notes: Family 5; also called CA8331 (pMESy4, E. coli)
B16: NANOBODY CA8316 (VHH)
VHH: QLQLVESGGGLVQAGGSLRLSCAASGDTFSRYVMGWFRQAPGKERTFVVGISGGGGITRYADSVKGRFTISRDNAENTLYLEMNTLNPEDTAVYYCAATPADSAFMRNLRVYDYWGQGTQVTVSS
notes: Family 7; The same nanobody subcloned in pMESy4 and purified from E. coli is CA8332
B17: NANOBODY CA8418 (VHH)
VHH: QVQLVESGGGLVQAGGSLRLSCAASGRTFSNYAMGWFRQAPGKEREFVAALTWSGGNTVYRDSVKGRFIITRDNAKNAVYLQMNSLKPEDTAVYYCASDRRPYRYNIGTAEGEYNYWGQGTQVTVSS
notes: Family 23

How the values were obtained:
[1] = biological target: T2, Recombinant Gαi1 (heterotrimeric G protein alpha subunit i1) (rat, UniProt P10824 1-354); assay: FACS on single yeast clone displaying the Nb; Gαi1-DYLIGHT-488
T2 construct: In the FACS screening it was labelled at random on amines with DYLIGHT-488 NHS ester; The sentence reads 'Recombinant rat RIC8A (uniprot:Q80ZG1) and Gαi1 (uniprot:P10824)'

[2] = biological target: T1, Recombinant rat RIC8A (resistance to …); assay: FACS on single yeast clone displaying the Nb; RIC8A-DYLIGHT-405
[3] = biological target: T2, Recombinant Gαi1 (heterotrimeric G …); assay: FACS of yeast cells displaying the Nb, stained with 1 µM Gαi1(GDP)-DYLIGHT-488; black = clone (CA8322 per legend), grey = irrelevant Nb
[4] = biological target: T1, Recombinant rat RIC8A (resistance to …); assay: FACS of yeast cells displaying the Nb, stained with 1 µM RIC8A-DYLIGHT-405; black = clone (CA8316 per legend), grey = irrelevant Nb
[5] = biological target: T2, Recombinant Gαi1 (heterotrimeric G …); assay: FACS of yeast cells displaying the Nb, stained with 1 µM Gαi1(GDP)-DYLIGHT-488; black = clone (CA8316 per legend), grey = irrelevant Nb

T2 sequence (P10824 whole entry, one chain of several): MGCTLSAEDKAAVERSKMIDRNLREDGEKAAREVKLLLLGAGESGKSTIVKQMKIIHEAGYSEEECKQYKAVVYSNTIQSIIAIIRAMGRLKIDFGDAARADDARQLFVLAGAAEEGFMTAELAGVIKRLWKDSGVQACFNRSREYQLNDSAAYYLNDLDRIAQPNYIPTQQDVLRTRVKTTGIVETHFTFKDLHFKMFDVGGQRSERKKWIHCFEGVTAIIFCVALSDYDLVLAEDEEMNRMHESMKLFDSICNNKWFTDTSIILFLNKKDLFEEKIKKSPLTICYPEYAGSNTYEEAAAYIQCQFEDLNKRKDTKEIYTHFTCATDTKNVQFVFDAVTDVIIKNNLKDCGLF

Row | Binder | binding result [1] | binding result [2] | also measured
1 | B1 | no binding (tested: 1 µM) |  | 
2 | B2 | no binding (tested: 1 µM) | no binding (tested: 1 µM) | 
3 | B3 |  |  | binding result [3]: no binding (tested: 1 µM)
4 | B4 | no binding (tested: 1 µM) | no binding (tested: 1 µM) | 
5 | B5 | no binding (tested: 1 µM) |  | 
6 | B6 | no binding (tested: 1 µM) |  | 
7 | B7 | no binding (tested: 1 µM) |  | 
8 | B8 | no binding (tested: 1 µM) | no binding (tested: 1 µM) | 
9 | B9 | no binding (tested: 1 µM) | no binding (tested: 1 µM) | 
10 | B10 | no binding (tested: 1 µM) |  | 
11 | B11 | no binding (tested: 1 µM) |  | 
12 | B12 | no binding (tested: 1 µM) | no binding (tested: 1 µM) | 
13 | B13 | no binding (tested: 1 µM) | no binding (tested: 1 µM) | 
14 | B14 | no binding (tested: 1 µM) | no binding (tested: 1 µM) | 
15 | B15 | no binding (tested: 1 µM) | no binding (tested: 1 µM) | 
16 | B16 |  |  | binding result [4]: no binding (tested: 1 µM); binding result [5]: no binding (tested: 1 µM)
17 | B17 | no binding (tested: 1 µM) |  | 
